Tests used:
[1] = Peracetic acid production by Thermotoga maritima MSB8 perhydrolase, control by bicarbonate buffer concentration; format: biochemical; details: 100 mM triacetin
Method: A cell extract of a transformant expressing perhydrolase from Thermotoga maritima MSB8 (KLP18/pSW207) was prepared by passing a suspension of cell paste (20 wt % wet cell weight) in 0.05 M potassium phosphate buffer (pH 7.0) containing dithiothreitol (1 mM) twice through a French press having a working pressure of 16,000 psi (˜110 MPa). The crude extract was then centrifuged at 20,000×g to remove cellular debris, producing a clarified cell extract that was assayed for total soluble protein (Bicinchoninic Acid Kit for Protein Determination, Sigma Aldrich catalog #BCA1-KT). The clarified extract was heated for 20 min at 75° C., followed immediately by cooling in an ice/water bath. The resulting mixture was centrifuged to remove precipitated protein, and the supernatant collected and assayed for total soluble protein as before. […] The supernatant was frozen in dry ice and stored at −80° C.
Reactions (2 mL total volume) containing triacetin, hydrogen peroxide and heat-treated, centrifuged cell extract supernatant (prepared as described above) were run at 25° C. using sodium bicarbonate buffer concentrations listed in Tables 9 and 10. A control reaction for each reaction condition was run to determine the concentration of peracetic acid produced by chemical perhydrolysis of triacetin by hydrogen peroxide in the absence of added extract protein. Determination of the concentration of peracetic acid in the reaction mixtures was performed according to the method described by Karst et al., supra. The peracetic acid concentrations produced in 1 min, 5 min and 30 min using either 250 mM or 100 mM hydrogen peroxide are listed in Table 9 and Table 10.

[2] = Peracetic acid production and reaction pH over time, Thermotoga maritima MSB8 perhydrolase, selection of buffer, reactant and perhydrolase concentrations; format: biochemical; details: triacetin 100 mM
Method: Reactions (10 mL total volume) containing triacetin (100 mM), hydrogen peroxide (100 mM or 250 mM) and heat-treated, centrifuged cell extract supernatant (35 to 100 μg total heat-treated extract protein/mL, prepared as described in Example 13) prepared from an E. coli transformant expressing perhydrolase from Thermotoga maritima MSB8 (KLP18/pSW207) in sodium citrate (50 mM, pH 6.5) buffer, or in sodium bicarbonate buffer (1 mM to 5 mM, initial pH as indicated in Table 12), or in water without added buffer were run at 25° C. A control reaction for each reaction condition was run to determine the concentration of peracetic acid produced by chemical perhydrolysis of triacetin by hydrogen peroxide in the absence of added extract protein. Determination of the concentration of peracetic acid in the reaction mixtures was performed according to the method described by Karst et al., supra. The peracetic acid concentration produced at predetermined reaction times is listed in Table 11, and the corresponding reaction pH at each reaction time is listed in Table 12.

[3] = bicarbonate, 1 mM, H2O2 100 mM, total protein 75 μg/mL
[4] = bicarbonate, 1 mM, H2O2 100 mM, total protein 100 μg/mL
[5] = bicarbonate, 1 mM, H2O2 250 mM, total protein 35 μg/mL
[6] = bicarbonate, 1 mM, H2O2 250 mM, total protein 50 μg/mL
[7] = bicarbonate, 2.5 mM, H2O2 100 mM, total protein 50 μg/mL
[8] = bicarbonate, 5 mM, H2O2 100 mM, total protein 50 μg/mL
[9] = citrate, 50 mM, H2O2 100 mM, total protein 50 μg/mL
[10] = water (no buffer), H2O2 250 mM, total protein 75 μg/mL
[11] = water (no buffer), H2O2 250 mM, total protein 100 μg/mL

B1: Thermotoga maritima MSB8 perhydrolase: acetyl xylan esterase with perhydrolase activity from Thermotoga maritima MSB8 (SEQ ID NO: 16), cell extract of E. coli KLP18/pSW207 (protein, listed as Thermotoga maritima)
chain: MAFFDLPLEELKKYRPERYEEKDFDEFWEETLAESEKFPLDPVFERMESHLKTVEAYDVTFSGYRGQRIKGWLLVPKLEEEKLPCVVQYIGYNGGRGFPHDWLFWPSMGYICFVMDTRGQGSGWLKGDTPDYPEGPVDPQYPGFMTRGILDPRTYYYRRVFTDAVRAVEAAASFPQVDQERIVIAGGSQGGGIALAVSALSKKAKALLCDVPFLCHFRRAVQLVDTHPYAEITNFLKTHRDKEEIVFRTLSYFDGVNFAARAKIPALFSVGLMDNICPPSTVFAAYNYYAGPKEIRIYPYNNHEGGGSFQAVEQVKFLKKLFEKG
- PAA (ppm), 1 min ([1]; NaHCO3 0 mM, initial pH 5.0, 1 min, 100 mM H2O2, 50 μg/mL heated extract total protein): 125 ppm
- PAA (ppm), 1 min ([1]; NaHCO3 0 mM, initial pH 5.0, 1 min, 250 mM H2O2, 50 μg/mL heated extract total protein): 233 ppm
- PAA (ppm), 5 min ([1]; NaHCO3 0 mM, initial pH 5.0, 5 min, 100 mM H2O2, 50 μg/mL heated extract total protein): 121 ppm
- PAA (ppm), 5 min ([1]; NaHCO3 0 mM, initial pH 5.0, 5 min, 250 mM H2O2, 50 μg/mL heated extract total protein): 290 ppm
- PAA (ppm), 30 min ([1]; NaHCO3 0 mM, initial pH 5.0, 30 min, 100 mM H2O2, 50 μg/mL heated extract total protein): 105 ppm
- PAA (ppm), 30 min ([1]; NaHCO3 0 mM, initial pH 5.0, 30 min, 250 mM H2O2, 50 μg/mL heated extract total protein): 289 ppm
- PAA (ppm), 1 min ([1]; NaHCO3 1.0 mM, initial pH 6.0, 1 min, 100 mM H2O2, 50 μg/mL heated extract total protein): 238 ppm
- PAA (ppm), 1 min ([1]; NaHCO3 1.0 mM, initial pH 6.0, 1 min, 250 mM H2O2, 50 μg/mL heated extract total protein): 690 ppm
- PAA (ppm), 5 min ([1]; NaHCO3 1.0 mM, initial pH 6.0, 5 min, 100 mM H2O2, 50 μg/mL heated extract total protein): 388 ppm
- PAA (ppm), 5 min ([1]; NaHCO3 1.0 mM, initial pH 6.0, 5 min, 250 mM H2O2, 50 μg/mL heated extract total protein): 980 ppm
- PAA (ppm), 30 min ([1]; NaHCO3 1.0 mM, initial pH 6.0, 30 min, 100 mM H2O2, 50 μg/mL heated extract total protein): 361 ppm
- PAA (ppm), 30 min ([1]; NaHCO3 1.0 mM, initial pH 6.0, 30 min, 250 mM H2O2, 50 μg/mL heated extract total protein): 981 ppm
- PAA (ppm), 1 min ([1]; NaHCO3 2.5 mM, initial pH 6.5, 1 min, 100 mM H2O2, 50 μg/mL heated extract total protein): 319 ppm
- PAA (ppm), 1 min ([1]; NaHCO3 2.5 mM, initial pH 6.5, 1 min, 250 mM H2O2, 50 μg/mL heated extract total protein): 817 ppm
- PAA (ppm), 5 min ([1]; NaHCO3 2.5 mM, initial pH 6.5, 5 min, 100 mM H2O2, 50 μg/mL heated extract total protein): 755 ppm
- PAA (ppm), 5 min ([1]; NaHCO3 2.5 mM, initial pH 6.5, 5 min, 250 mM H2O2, 50 μg/mL heated extract total protein): 1758 ppm
- PAA (ppm), 30 min ([1]; NaHCO3 2.5 mM, initial pH 6.5, 30 min, 100 mM H2O2, 50 μg/mL heated extract total protein): 710 ppm
- PAA (ppm), 30 min ([1]; NaHCO3 2.5 mM, initial pH 6.5, 30 min, 250 mM H2O2, 50 μg/mL heated extract total protein): 1748 ppm
- PAA (ppm), 1 min ([1]; NaHCO3 5.0 mM, initial pH 6.5, 1 min, 100 mM H2O2, 50 μg/mL heated extract total protein): 330 ppm
- PAA (ppm), 1 min ([1]; NaHCO3 5.0 mM, initial pH 6.5, 1 min, 250 mM H2O2, 50 μg/mL heated extract total protein): 735 ppm
- PAA (ppm), 5 min ([1]; NaHCO3 5.0 mM, initial pH 6.5, 5 min, 100 mM H2O2, 50 μg/mL heated extract total protein): 972 ppm
- PAA (ppm), 5 min ([1]; NaHCO3 5.0 mM, initial pH 6.5, 5 min, 250 mM H2O2, 50 μg/mL heated extract total protein): 1825 ppm
- PAA (ppm), 30 min ([1]; NaHCO3 5.0 mM, initial pH 6.5, 30 min, 100 mM H2O2, 50 μg/mL heated extract total protein): 1323 ppm
- PAA (ppm), 30 min ([1]; NaHCO3 5.0 mM, initial pH 6.5, 30 min, 250 mM H2O2, 50 μg/mL heated extract total protein): 2222 ppm
- PAA (ppm), 1 min ([1]; NaHCO3 10 mM, initial pH 7.0, 1 min, 250 mM H2O2, 50 μg/mL heated extract total protein): 804 ppm
- PAA (ppm), 5 min ([1]; NaHCO3 10 mM, initial pH 7.0, 5 min, 250 mM H2O2, 50 μg/mL heated extract total protein): 1951 ppm
- PAA (ppm), 30 min ([1]; NaHCO3 10 mM, initial pH 7.0, 30 min, 250 mM H2O2, 50 μg/mL heated extract total protein): 2698 ppm
- PAA (ppm), 1 min ([1]; NaHCO3 10 mM, initial pH 8.1, 1 min, 100 mM H2O2, 50 μg/mL heated extract total protein): 407 ppm
- PAA (ppm), 5 min ([1]; NaHCO3 10 mM, initial pH 8.1, 5 min, 100 mM H2O2, 50 μg/mL heated extract total protein): 1075 ppm
- PAA (ppm), 30 min ([1]; NaHCO3 10 mM, initial pH 8.1, 30 min, 100 mM H2O2, 50 μg/mL heated extract total protein): 1763 ppm
- PAA (ppm), 1 min ([1]; NaHCO3 25 mM, initial pH 8.1, 1 min, 100 mM H2O2, 50 μg/mL heated extract total protein): 465 ppm
- PAA (ppm), 1 min ([1]; NaHCO3 25 mM, initial pH 8.1, 1 min, 250 mM H2O2, 50 μg/mL heated extract total protein): 848 ppm
- PAA (ppm), 5 min ([1]; NaHCO3 25 mM, initial pH 8.1, 5 min, 100 mM H2O2, 50 μg/mL heated extract total protein): 1369 ppm
- PAA (ppm), 5 min ([1]; NaHCO3 25 mM, initial pH 8.1, 5 min, 250 mM H2O2, 50 μg/mL heated extract total protein): 2342 ppm
- PAA (ppm), 30 min ([1]; NaHCO3 25 mM, initial pH 8.1, 30 min, 100 mM H2O2, 50 μg/mL heated extract total protein): 2217 ppm
- PAA (ppm), 30 min ([1]; NaHCO3 25 mM, initial pH 8.1, 30 min, 250 mM H2O2, 50 μg/mL heated extract total protein): 3251 ppm
- PAA (ppm), 1 min [2, 3]: 434 ppm
- PAA (ppm), 5 min [2, 3]: 494 ppm
- PAA (ppm), 30 min [2, 3]: 608 ppm
- PAA (ppm), 2 h [2, 3]: 673 ppm
- PAA (ppm), 18 h [2, 3]: 576 ppm
- PAA (ppm), 1 min [2, 4]: 449 ppm
- PAA (ppm), 5 min [2, 4]: 667 ppm
- PAA (ppm), 30 min [2, 4]: 643 ppm
- PAA (ppm), 2 h [2, 4]: 703 ppm
- PAA (ppm), 18 h [2, 4]: 613 ppm
- PAA (ppm), 1 min [2, 5]: 467 ppm
- PAA (ppm), 5 min [2, 5]: 1047 ppm
- PAA (ppm), 30 min [2, 5]: 1041 ppm
- PAA (ppm), 2 h [2, 5]: 1014 ppm
- PAA (ppm), 18 h [2, 5]: 917 ppm
- PAA (ppm), 1 min [2, 6]: 624 ppm
- PAA (ppm), 5 min [2, 6]: 1060 ppm
- PAA (ppm), 30 min [2, 6]: 1090 ppm
- PAA (ppm), 2 h [2, 6]: 1063 ppm
- PAA (ppm), 18 h [2, 6]: 1021 ppm
- PAA (ppm), 1 min [2, 7]: 256 ppm
- PAA (ppm), 5 min [2, 7]: 722 ppm
- PAA (ppm), 30 min [2, 7]: 976 ppm
- PAA (ppm), 2 h [2, 7]: 887 ppm
- PAA (ppm), 18 h [2, 7]: 855 ppm
- PAA (ppm), 1 min [2, 8]: 410 ppm
- PAA (ppm), 5 min [2, 8]: 1088 ppm
- PAA (ppm), 30 min [2, 8]: 1496 ppm
- PAA (ppm), 2 h [2, 8]: 1423 ppm
- PAA (ppm), 18 h [2, 8]: 1419 ppm
- PAA (ppm), 1 min [2, 9]: 409 ppm
- PAA (ppm), 5 min [2, 9]: 892 ppm
- PAA (ppm), 30 min [2, 9]: 2001 ppm
- PAA (ppm), 2 h [2, 9]: 2254 ppm
- PAA (ppm), 18 h [2, 9]: 1937 ppm
- PAA (ppm), 1 min [2, 10]: 512 ppm
- PAA (ppm), 5 min [2, 10]: 535 ppm
- PAA (ppm), 30 min [2, 10]: 533 ppm
- PAA (ppm), 2 h [2, 10]: 472 ppm
- PAA (ppm), 18 h [2, 10]: 448 ppm
- PAA (ppm), 1 min [2, 11]: 576 ppm
- PAA (ppm), 5 min [2, 11]: 668 ppm
- PAA (ppm), 30 min [2, 11]: 654 ppm
- PAA (ppm), 2 h [2, 11]: 618 ppm
- PAA (ppm), 18 h [2, 11]: 543 ppm

Reference: patent publication US8389575B2, “Control of enzymatic peracid generation” (E.I. du Pont de Nemours and Company, priority 2008, dated 2013)
